Results from PMC11926106.
Several values for one entry are separate records, joined by “and”; a condition that tells them apart may be missing. Identical values can stand only once.

Assays:
glycinin (soybean) [1] = experiment: mass photometry; label-free glycinin 0.48 µg/mL adsorbed on a supported lipid bilayer of DOPC, 365 mM NaCl, 5 min incubation; oligomers counted among the membrane-adsorbed particles
glycinin (soybean) [2] = experiment: mass photometry; label-free glycinin 0.48 µg/mL adsorbed on a supported lipid bilayer of DOPC, 20 mM NaCl, 5 min incubation; oligomers counted among the membrane-adsorbed particles

Sequence of glycinin (P04776 20-495): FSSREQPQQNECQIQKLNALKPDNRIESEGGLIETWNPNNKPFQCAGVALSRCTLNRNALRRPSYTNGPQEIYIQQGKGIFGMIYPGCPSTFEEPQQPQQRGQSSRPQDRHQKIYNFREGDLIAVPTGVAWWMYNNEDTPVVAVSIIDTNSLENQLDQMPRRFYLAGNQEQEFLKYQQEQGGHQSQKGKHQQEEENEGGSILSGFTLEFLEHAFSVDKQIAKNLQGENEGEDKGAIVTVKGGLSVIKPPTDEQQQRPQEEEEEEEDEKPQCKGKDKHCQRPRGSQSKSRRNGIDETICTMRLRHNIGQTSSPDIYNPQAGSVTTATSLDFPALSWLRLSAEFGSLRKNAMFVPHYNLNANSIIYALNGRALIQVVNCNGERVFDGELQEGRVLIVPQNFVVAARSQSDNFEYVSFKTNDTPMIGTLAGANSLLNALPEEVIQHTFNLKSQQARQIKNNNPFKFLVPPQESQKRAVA

## glycinin (natural protein)
Glycinin (soybean) [1]
  stoichiometry N: 9
Glycinin (soybean) [2]
  stoichiometry N: 3 and 6
